Experimental data from patent publication US10662235B2, “Cysteine engineered fibronectin type III domain binding molecules” (Janssen Biotech, Inc., priority 2016, dated 2020).
Numbering of substitutions follows the chain as printed. Names and notes keep the numbering of the source. “Also recorded” adds a separate entry of the source.

Experiments:
[1] = tested on: H292-HGF human lung cancer xenograft; assay: Efficacy of bispecific molecule and other inhibitors in H292-HGF xenograft model (tumor volume, T/C, T-C); format: in vivo, SCID/Beige mice; conditions: for antitumor activity: H292-HGF xenograft
Procedure: The H292-HGF cells were maintained in vitro in RPMI1640 medium supplemented with fetal bovine serum (10% v/v), and L-glutamine (2 mM) at 37° C. in an atmosphere of 5% CO2 in air. The cells were routinely subcultured twice weekly by trypsin-EDTA treatment. The cells growing in an exponential growth phase were harvested and counted for tumor inoculation.
Each mouse was inoculated subcutaneously at the right flank region with H292-HGF tumor cells (2×10^6) in 0.1 ml of PBS with cultrex (1:1) for tumor development. The treatments were started when the mean tumor size reached 139 mm^3. […] The date of tumor cell inoculation was denoted as day 0.
Before commencement of treatment, all animals were weighed and the tumor volumes were measured. Since the tumor volume can affect the effectiveness of any given treatment, mice were assigned into groups using randomized block design based upon their tumor volumes. […] The randomized block design was used to assign experimental animals to groups. First, the experimental animals were divided into homogeneous blocks according to their initial tumor volume. Secondly, within each block, randomization of experimental animals to treatments was conducted.
The major endpoint was whether tumor growth can be delayed or tumor bearing mice can be cured. Tumor size was measured twice weekly in two dimensions using a caliper, and the volume was expressed in mm^3 using the formula: V=0.5a×b^2 where a and b are the long and short diameters of the tumor, respectively. The tumor size was then used for calculations of both T-C and T/C values. T-C was calculated with T as the time (in days) required for the mean tumor size of the treatment group to reach 1000 mm^3, and C was the time (in days) for the mean tumor size of the control group to reach the same size. The T/C value (in percent) was an indication of antitumor efficacy; T and C were the mean volume of the treated and control groups, respectively, on a given day. Complete tumor regression (CR) is defined as tumors that are reduced to below the limit of palpation (62.5 mm^3). Partial tumor regression (PR) is defined as tumors that are reduced from initial tumor volume. A minimum duration of CR or PR in 3 or more successive tumor measurements is required for a CP or PR to be considered durable.
Statistical analyses of difference in tumor volume among the groups were evaluated using a one-way ANOVA followed by individual comparisons using Games-Howell (equal variance not assumed). All data were analyzed using SPSS 18.0. p<0.05 was considered to be statistically significant.

[2] = Body weight loss / tolerability in H292-HGF xenograft study; conditions: treatment and 2 weeks observation
Procedure: At the time of routine monitoring, the animals were checked for any effects of tumor growth and treatments on normal behavior, such as mobility, visual estimation of food and water consumption, body weight gain/loss (body weights were measured twice weekly), eye/hair matting and any other abnormal effect.
Animals for which the body weight loss exceeded 20%, or for which the mean tumor size of the group exceeds 2000 mm^3 were euthanized. The study was terminated after two weeks of observation after the final dose.

[3] = tested on: MDA-MB-435 cells; assay: Cytotoxicity assay of cytotoxin conjugates in EGFR-negative MDA-MB-435 cells; format: cell-based, human; conditions: EGFR-negative cell line; CellTiter Glo or IncuCyte object count at 66, 72 or 90 hour
Procedure: (§1) Cell killing was assessed by measuring viability of the EGFR-overexpressing human tumor cell line H1573 following exposure to the cysteine variant-cytotoxin conjugates. Cells were plated in black-well, clear bottomed, tissue culture-treated plates (Falcon 353219) at 7000/well in 100 μL/well of phenol red free RPMI media (Gibco 11835-030) with 5% fetal bovine serum (Gibco). Cells were allowed to attach overnight at 37° C. in a humidified 5% CO2 atmosphere. Medium was aspirated from 96-well plate and cells were treated with 50 uL of fresh media and 50 uL of 2× inhibitor made up in fresh media. Cell viability was determined by an endpoint assay with Cell TiterGlo (Promega) at 70 hours. IC50 values were determined by fitting data to the equation for a sigmoidal dose response with variable slope using GraphPad Prism 5 (GraphPad Software). Table 11 reports IC50 values obtained from analysis of the CellTiter Glo data.
Conjugates consisting of ECB147 cysteine variants, 83v2-cys, or Tencon-cys linked to a cytotoxic tubulin inhibitor from the auristatin family (FIG. 2) were tested for target-dependent cytotoxicity in cancer cells. […] Cell killing was assessed by measuring viability of the EGFR-overexpressing human tumor cell lines H1573 and A431 as well as the EGFR-negative tumor cell line MDA-MB-435 following exposure to the protein-cytotoxin conjugates using the procedure described in Example 4.

[4] = tested on: H292-HGF tumor xenografts; assay: Tumor efficacy study with bispecific EGFR/c-Met molecules (tumor growth inhibition); format: in vivo, SCID Beige mice; conditions: 25 mg/kg three times per week (FIG. 10)
Procedure: One week after implantation, mice were stratified into groups with equivalent tumor volumes (mean tumor volume=77.9+/−1.7 mm^3). Mice were dosed three times per week with the bispecific molecules and tumor volumes were recorded twice weekly.

[5] = tested on: H1573 cells; assay: Cytotoxicity assay of cytotoxin conjugates in H1573 cells; format: cell-based, human; conditions: MMAF conjugates, Cell TiterGlo at 70 hours, read-out: IC50 (cell killing)
Procedure: as §1, with “Cells were plated in black-well, clear bottomed, tissue culture-treated plates (Falcon 353219) at 7000/well in 100 μL/well of phenol red free RPMI media (Gibco 11835-030) with 5% fetal bovine serum (Gibco).” left out, “Software).” for “Software). Table 11 reports IC50 values obtained from analysis of the CellTiter Glo data.”
Conjugates consisting of ECB147 cysteine variants, 83v2-cys, or Tencon-cys linked to a cytotoxic tubulin inhibitor from the auristatin family (FIG. 2) were tested for target-dependent cytotoxicity in cancer cells. The inhibitor was linked to the cysteine-containing protein via a non-cleavable PEG4 linker or an enzyme-cleavable valine-citrulline or valine-lysine linker.

[6] = Thermal stability by differential scanning calorimetry; format: physicochemical; conditions: cysteine-NEM conjugates; for First Scan Tm: DSC 25-100° C., 1° C. per minute; for Second Scan Tm: second identical scan
Procedure: The thermal stability of cysteine-NEM conjugates was assessed by differential scanning calorimetry (DSC). The only the conjugates tested were those determined to express at high levels, conjugate efficiently, and retain EGFR binding. Additionally, cysteine variants within the BC and FG loops were excluded. Stability data was generated by heating a 400 μL aliquot of the variant from 25° C. to 100° C. at a scan rate of 1° C. per minute in a VP-DSC instrument (MicroCal). A second identical scan was completed on the sample in order to assess the reversibility of thermal folding/unfolding. Data was fitted to a 2-state unfolding model in order to calculate the melting temperature (Table 10).
Thermal Stability of c-Met-Binding FN3 Domains Differential scanning calorimetry in PBS was used to assess the stability of each FN3 domain.

[7] = Analytical size exclusion chromatography (aggregation state, percent monomer); format: physicochemical; conditions: NEM-conjugated cysteine variants; SEC, Abs280
Procedure: Size exclusion chromatography was used to determine the aggregation state of the FN3 domains binding EGFR. Aliquots (10 μL) of each purified FN3 domain were injected onto a Superdex 75 5/150 column (GE Healthcare) at a flow rate of 0.3 mL/min in a mobile phase of PBS pH 7.4. Elution from the column was monitored by absorbance at 280 nm.
The percent monomer for each protein was determined by integrating the Abs280 signal and comparing the peak in the monomer region (5.5-6 minutes) to the peaks in the oligomer region (4-5.3 minutes).

[8] = molecular target: EGFR (Homo sapiens, UniProt P00533); assay: EGFR binding assay (ELISA) of NEM-conjugated cysteine variants relative to parent

In the case of `C[C@@H](Oc1cc(-c2cnn(C3CCNCC3)c2)cnc1N)c1c(Cl)ccc(F)c1Cl` [Crizotinib], the antitumor activity [1] is reported as “no antitumor activity”, the T/C value ([1]; day 23) is reported as 120% and the “toxicity / body weight loss / tolerability” value [2] is reported as “More severe body weight loss”.

In the case of `C#Cc1cccc(Nc2ncnc3cc(OCCOC)c(OCCOC)cc23)c1` [Erlotinib], the “toxicity / body weight loss / tolerability” value [2] is reported as “More severe body weight loss”.

B1: 83v2cy5-mal-PEG4-VC-MMAE (conjugate)
chain: MLPAPKNLVVSEVTEDSARLSWDDPWAFYESFLIQYQESEKVGEAIVLTVPGSERSYDLTGLKPGTEYTVSIYGVHNVYKDTNMRGLPLSAIFTTGGHHHHHHC
Molecule B1 has an IC50 [3] of 512 nM.

B2: 83v2cy5-mal-PEG4-VK-MMAE (conjugate)
chain: B1 chain
B2 showed an IC50 [3] of 62 nM.

B3: ECB39: bispecific P53A1R5-17v2 / P114AR7P94-A3 linked to albumin binding domain, SEQ ID 121 (protein)
chain: MLPAPKNLVVSEVTEDSARLSWADPHGFYDSFLIQYQESEKVGEAIVLTVPGSERSYDLTGLKPGTEYTVSIYGVHNVYKDTNMRGLPLSAIFTTAPAPAPAPAPLPAPKNLVVSRVTEDSARLSWTAPDAAFDSFWIRYFEFLGSGEAIVLTVPGSERSYDLTGLKPGTEYVVNIMGVKGGKISPPLSAIFTTAPAPAPAPAPLAEAKVLANRELDKYGVSDYYKNLINNAKTVEGVKALLDEILAALP
modifications: Bispecific EGFR/c-Met binding molecule
With B3 the “tumor growth inhibition (TGI)” value [4] was “showed the most efficacy”.

B4: ECB18: bispecific P54AR4-83v2 / P114AR5P74-A5 linked to albumin binding domain, SEQ ID 118 (protein)
chain: MLPAPKNLVVSEVTEDSARLSWDDPWAFYESFLIQYQESEKVGEAIVLTVPGSERSYDLTGLKPGTEYTVSIYGVHNVYKDTNMRGLPLSAIFTTAPAPAPAPAPLPAPKNLVVSRVTEDSARLSWTAPDAAFDSFWIRYDEVVVGGEAIVLTVPGSERSYDLTGLKPGTEYYVNILGVKGGSISVPLSAIFTTAPAPAPAPAPLAEAKVLANRELDKYGVSDYYKNLINNAKTVEGVKALLDEILAALP
modifications: Bispecific EGFR/c-Met binding molecule
In the case of B4, the “tumor growth inhibition (TGI)” value [4] is reported as “delay in tumor growth”.

B5: ECB38: bispecific P54AR4-83v2 / P114AR7P94-A3 linked to albumin binding domain, SEQ ID 120 (protein)
chain: B3 chain with A23D, H26W, G27A, D30E
modifications: Bispecific EGFR/c-Met binding molecule
For B5, the “tumor growth inhibition (TGI)” value [4] was “showed the most efficacy”, the antitumor activity [1] was “complete tumor regression (CR) in all mice; also recorded: complete response” and the “toxicity / body weight loss / tolerability” value [2] was “Slight toxicity; also recorded: tolerated in 7 out of 10 mice”.

B6: T59C (protein)
chain 1: MLPAPKNLVVSEVTEDSARLSWDDPWAFYESFLIQYQESEKVGEAIVLTVPGSERSYDLCGLKPGTEYTVSIYGVHNVYKDTNMRGLPLSAIFTT
chain 2: LPAPKNLVVSEVTEDSARLSWDDPWAFYESFLIQYQESEKVGEAIVLTVPGSERSYDLCGLKPGTEYTVSIYGVHNVYKDTNMRGLPLSAIFTT
modifications: EGFR binding FN3 domain; EGFR-binding FN3 domain
For B6, the IC50 [5] was 0.44 nM, the “First Scan Tm” value [6] was 67 °C and the “Second Scan Tm” value [6] was 67 °C. For the same molecule, the Percent monomer [7] was 100%.

B7: S70C (protein)
chain 1: B6 chain 1 with C60T, S71C
chain 2: B6 chain 2 with C59T, S70C
modifications: EGFR binding FN3 domain; EGFR-binding FN3 domain
For B7, the IC50 [5] was 1.14 nM, the “First Scan Tm” value [6] was 73 °C and the “Second Scan Tm” value [6] was 72 °C. For the same molecule, the Percent monomer [7] was 100%.

B8: I91C (protein)
chain: B6 chain 2 with C59T, I91C
For B8, the IC50 [5] was 0.54 nM, the “First Scan Tm” value [6] was 70 °C and the “Second Scan Tm” value [6] was 69 °C. For the same molecule, the Percent monomer [7] was 100%.

B9: S89C (protein)
chain 1: B6 chain 1 with C60T, S90C
chain 2: B6 chain 2 with C59T, S89C
modifications: EGFR binding FN3 domain; EGFR-binding FN3 domain
With B9 the IC50 [5] was 0.94 nM, the “First Scan Tm” value [6] was 72 °C and the “Second Scan Tm” value [6] was 71 °C. For the same molecule, the Percent monomer [7] was 96%.

B10: T68C (protein)
chain 1: B6 chain 1 with N7C, C60T
chain 2: B6 chain 2 with N6C, C59T
modifications: EGFR binding FN3 domain; EGFR-binding FN3 domain
With B10 the “First Scan Tm” value [6] was 72 °C, the “Second Scan Tm” value [6] was 72 °C and the “EGFR binding relative to P54AR4-83v2 parent, 10 nM variant in assay” value ([8]; 10 nM) was 0.83. For the same molecule, the “EGFR binding relative to P54AR4-83v2 parent, 100 nM variant in assay” value ([8]; 100 nM) was 1.04, the “EGFR binding relative to P54AR4-83v2 parent, 500 nM variant in assay” value ([8]; 500 nM) was 0.95 and the Percent monomer [7] was 100%.
